The supplement of paper PMC10567573

B1: CPXM2 (parent)
chain: TASTKNCMVGYDMGATRCDFTLSK
B2: GMCL1 (parent)
chain: RPDTGDDAAGHGFCYCAGSHKRKR

Variants of: B1
Assay: protein stability index of a GFP-peptide fusion (GPS, HEK-293T) (PSI 1-6); higher = more stable
Details: c terminus: a fixed tail appended
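Note: lentivirally expressed fusions sorted by FACS into six bins by GFP to DsRed ratio, PSI derived from sequencing read proportions per bin multiplied by bin number.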

Protein stability index, by site and new letter:
G14: L 2.31; M 2.17; N 3.17; P 2.84; Q 2.44; R 2.88; S 2.5; T 2.76; V 1.75; W 2.15; Y 1.59
A15: C 1.8; D 2.78; E 2.75; F 2.51; G 2.61; H 2.89; I 2.58; K 2.84; L 2.71; M 2.07; N 2.62; P 2.33; Q 2.77; R 1.89; S 1.68; T 2.37; V 3.16; W 2.71; Y 2.19
T16: A 2.7; C 2.26; D 3.72; E 2.97; F 1.75; G 2.27; H 2.47; I 1.6; K 2.74; L 2.45; M 2.28; N 2.75; P 2.62; Q 2.86; R 3.06; S 2.81; V 2.66; W 2.39; Y 2.17
R17: A 3.87; C 3.49; D 3.96; E 3.79; F 2.81; G 3.72; H 2.72; I 3.2; K 3.28; L 3.53; M 3.07; N 3.32; P 3.57; Q 3.67; S 3.31; T 3.38; V 3.7; W 2.13; Y 2.63
C18: A 2.04; D 2.98; E 3.53; F 2.42; G 1.87; H 2.8; I 2.84; K 3.57; L 2.4; M 2.59; N 2.43; P 3.2; Q 1.75; R 2.68; S 2.27; T 2.66; V 2.19; W 3.08; Y 2.46
D19: A 2.9; C 1.91; E 2.18; F 1.75; G 1.94; H 2.59; I 1.94; K 2.67; L 2.54; M 1.82; N 3.07; P 2.77; Q 1.84; R 2.9; S 2.08; T 2.36; V 1.78; W 2.24; Y 2.36
F20: A 2.51; C 2.52; D 3.85; E 4.26; G 3.5; H 3.5; I 2.69; K 3.67; L 2.42; M 2.78; N 2.98; P 4.12; Q 3.05; R 3.63; S 2.99; T 3.88; V 2.81; W 2.28; Y 2.13
T21: A 2.37; C 1.57; D 2.52; E 3.16; F 2.11; G 2.48; H 3.16; I 2.02; K 3.35; L 2.52; M 1.95; N 3.06; P 2.71; Q 3.15; R 2.89; S 2.21; V 2.48; W 1.67; Y 1.91
L22: A 2.64; C 2.42; D 3.58; E 3.07; F 2.12; G 3.48; H 3.06; I 1.88; K 3.36; M 2.39; N 3.41; P 2.48; Q 2.96; R 2.35; S 2.41; T 3.23; V 2.52; W 1.74; Y 2.26
S23: A 3.47; C 1.46; D 2.55; E 2.45; F 1.55; G 2.45; H 2.2; I 1.89; K 2.78; L 2.67; M 2; N 2.6; P 2.59; Q 2.26; R 3.34; T 1.94; V 2.3; W 1.86; Y 2.01
K24: A 2.43; C 2.38; D 2.37; E 2.62; F 4.01; G 1.78; H 2.87; I 3.76; L 1.52; M 2.85; N 2.03; P 2.35; Q 1.82; R 1.56; S 2.22; T 1.62; V 2.78; Y 2.73

Variants of: B2
Assay: as above
Details: c terminus: a fixed tail appended

Protein stability index of substitutions, site by site:
R1: A 2.89; C 2.99; D 2.92; E 2.84; F 1.76; G 3.97; H 3.08; I 2.34; K 2.99; L 3.2; M 3.16; N 2.83; P 2.71; Q 2.98; S 2.96; T 2.97; V 2.5; W 3.2; Y 2
P2: A 3.02; C 3.23; D 3.46; E 3.14; F 2.91; G 3.01; H 2.96; I 3.08; K 3.35; L 2.77; M 3.05; N 3.27; Q 2.91; R 2.85; S 2.95; T 2.3; V 2.89; W 3.4; Y 3.41
D3: A 2.62; C 2.97; E 2.41; F 2.76; G 2.19; H 3.4; I 3.29; K 3.62; L 3.14; M 2.3; N 3.31; P 3.64; Q 2.51; R 3.19; S 3.14; T 2.86; V 3.91; W 3.04; Y 3.15
T4: A 3.06; C 2.14; D 3.79; E 3.16; F 3.28; G 3.93; H 3.11; I 3.06; K 3.14; L 2.81; M 2.98; N 2.97; P 2.96; Q 3.47; R 3.6; S 3.06; V 3; W 2.71; Y 2.87
G5: A 3.37; C 3.63; D 2.89; E 2.93; F 2.59; H 2.48; I 3.28; K 3.45; L 3.1; M 2.84; N 3.17; P 3.48; Q 2.87; R 3.15; S 3.5; T 2.97; V 2.99; W 2.59; Y 3.27
D6: A 3.21; C 3.8; E 3.46; F 2.73; G 3.16; H 2.8; I 3.05; K 3.27; L 3.13; M 2.79; N 3.57; P 2.96; Q 3.46; R 3.23; S 2.97; T 2.89; V 2.93; W 2.99; Y 3.15
D7: A 3.46; C 3.02; E 3.95; F 2.83; G 3.3; H 3.09; I 3.08; K 3.03; L 3.03; M 3.44; N 3.13; P 3.28; Q 2.83; R 3.51; S 3.47; T 3.49; V 3.16; W 2.2; Y 2.99
A8: C 3.23
